Molecular target: SecYEG-SecDF•YajC (E. coli) (UniProt P0AGA2)

**Q.** For “E. coli SecA (from UniProt P10408 1-901) (natural protein)”, which % pOmpA Translocation, +YEG: in vitro translocation of pOmpA into liposomes with SecYEG-SecDF•YajC (% pOmpA Translocation) is on record?
**A.** 97

**Q.** What about the Channel Activity, μA, +YEG: ion current in Xenopus oocytes injected with SecA, liposomes, SecYEG-SecDF•YajC, pOmpA, ATP-Mg of the same molecule?
**A.** 7 μA

**Q.** How did the % pOmpA Translocation, +YEG: in vitro translocation of pOmpA into liposomes with SecYEG-SecDF•YajC (% pOmpA Translocation) turn out when “SecA N772 (SecA 1-772) (from UniProt P10408 1-772) (domain or fragment)” was run?
**A.** 0

B1: SecA N609 (SecA 1-609) (domain or fragment)
chain: MLIKLLTKVFGSRNDRTLRRMRKVVNIINAMEPEMEKLSDEELKGKTAEFRARLEKGEVLENLIPEAFAVVREASKRVFGMRHFDVQLLGGMVLNERCIAEMRTGEGKTLTATLPAYLNALTGKGVHVVTVNDYLAQRDAENNRPLFEFLGLTVGINLPGMPAPAKREAYAADITYGTNNEYGFDYLRDNMAFSPEERVQRKLHYALVDEVDSILIDEARTPLIISGPAEDSSEMYKRVNKIIPHLIRQEKEDSETFQGEGHFSVDEKSRQVNLTERGLVLIEELLVKEGIMDEGESLYSPANIMLMHHVTAALRAHALFTRDVDYIVKDGEVIIVDEHTGRTMQGRRWSDGLHQAVEAKEGVQIQNENQTLASITFQNYFRLYEKLAGMTGTADTEAFEFSSIYKLDTVVVPTNRPMIRKDLPDLVYMTEAEKIQAIIEDIKERTAKGQPVLVGTISIEKSELVSNELTKAGIKHNVLNAKFHANEAAIVAQAGYPAAVTIATNMAGRGTDIVLGGSWQAEVAALENPTAEQIEKIKADWQVRHDAVLEAGGLHIIGTERHESRRIDNQLRGRSGRQGDAGSSRFYLSMEDALMRIFASDRVSGMMRK
**Q.** What does the source list for B1?
**A.** % pOmpA Translocation, +YEG: in vitro translocation of pOmpA into liposomes with SecYEG-SecDF•YajC (% pOmpA Translocation): 0; Channel Activity, μA, +YEG: ion current in Xenopus oocytes injected with the fragment, liposomes, SecYEG-SecDF•YajC, pOmpA, ATP-Mg: 0 μA

B2: SecA N831 (SecA 1-831) (domain or fragment)
chain: MLIKLLTKVFGSRNDRTLRRMRKVVNIINAMEPEMEKLSDEELKGKTAEFRARLEKGEVLENLIPEAFAVVREASKRVFGMRHFDVQLLGGMVLNERCIAEMRTGEGKTLTATLPAYLNALTGKGVHVVTVNDYLAQRDAENNRPLFEFLGLTVGINLPGMPAPAKREAYAADITYGTNNEYGFDYLRDNMAFSPEERVQRKLHYALVDEVDSILIDEARTPLIISGPAEDSSEMYKRVNKIIPHLIRQEKEDSETFQGEGHFSVDEKSRQVNLTERGLVLIEELLVKEGIMDEGESLYSPANIMLMHHVTAALRAHALFTRDVDYIVKDGEVIIVDEHTGRTMQGRRWSDGLHQAVEAKEGVQIQNENQTLASITFQNYFRLYEKLAGMTGTADTEAFEFSSIYKLDTVVVPTNRPMIRKDLPDLVYMTEAEKIQAIIEDIKERTAKGQPVLVGTISIEKSELVSNELTKAGIKHNVLNAKFHANEAAIVAQAGYPAAVTIATNMAGRGTDIVLGGSWQAEVAALENPTAEQIEKIKADWQVRHDAVLEAGGLHIIGTERHESRRIDNQLRGRSGRQGDAGSSRFYLSMEDALMRIFASDRVSGMMRKLGMKPGEAIEHPWVTKAIANAQRKVESRNFDIRKQLLEYDDVANDQRRAIYSQRNELLDVSDVSETINSIREDVFKATIDAYIPPQSLEEMWDIPGLQERLKNDFDLDLPIAEWLDKEPELHEETLRERILAQSIEVYQRKEEVVGAEMMRHFEKGVMLQTLDSLWKEHLAAMDYLRQGIHLRGYAQKDPKQEYKRESFSMFAAMLESLKYEVISTLSKVQV
**Q.** With B2 as the molecule, how does the % pOmpA Translocation, +YEG: in vitro translocation of pOmpA into liposomes with SecYEG-SecDF•YajC (% pOmpA Translocation) read?
**A.** 71.2

**Q.** What about the Channel Activity, μA, +YEG: ion current in Xenopus oocytes injected with the fragment, liposomes, SecYEG-SecDF•YajC, pOmpA, ATP-Mg of the same molecule?
**A.** 5.8 μA

Reference: publication PMC5456053
